For this test, the target named is T1, CEA (180 KDa glycoprotein purified from colorectal tumour liver metastases by affinity chromatography with … (UniProt P06731 35-685)).
T1 construct: Native glycoprotein dried onto microtitre plates; also called purified CEA
T1 sequence (looked up): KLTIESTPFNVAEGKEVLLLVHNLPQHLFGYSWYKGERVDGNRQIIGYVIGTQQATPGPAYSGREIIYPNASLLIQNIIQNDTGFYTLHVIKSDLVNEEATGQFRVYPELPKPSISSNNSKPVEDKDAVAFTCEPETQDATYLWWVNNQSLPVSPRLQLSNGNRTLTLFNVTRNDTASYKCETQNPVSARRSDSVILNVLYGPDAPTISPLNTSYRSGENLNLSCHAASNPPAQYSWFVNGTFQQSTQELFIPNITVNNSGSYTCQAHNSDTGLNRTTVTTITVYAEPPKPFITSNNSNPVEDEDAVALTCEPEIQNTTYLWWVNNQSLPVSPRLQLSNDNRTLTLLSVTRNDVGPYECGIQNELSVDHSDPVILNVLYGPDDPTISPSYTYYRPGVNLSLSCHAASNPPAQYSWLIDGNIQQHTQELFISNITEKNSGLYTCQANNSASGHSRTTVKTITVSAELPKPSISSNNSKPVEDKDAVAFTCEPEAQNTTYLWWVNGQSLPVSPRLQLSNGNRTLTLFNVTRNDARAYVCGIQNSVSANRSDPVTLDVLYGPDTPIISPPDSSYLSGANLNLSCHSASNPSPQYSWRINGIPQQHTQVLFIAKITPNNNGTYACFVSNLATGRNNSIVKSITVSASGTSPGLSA
Put plainly: ELISA, antigen dried onto microtitre plates (FIG. 4). How it is done: The C14 antigen (90 KDa glycoprotein purified from saliva by affinity chromatography on C14 monoclonal), CEA (180 KDa glycoprotein purified from colorectal tumour live metastases by affinity chromatography with 365 mab) and glycolipid extract (glycolipid extracted in 3:1 methanol chloroform w/v from colorectal tumours) were dried onto microtitre plates by overnight incubation at 37° C. Binding of SC104 mab was assayed by ELISA and results expressed as absorbance 405 nm. SC101 and anti-CEA antibodies are included as positive controls.
Binding to purified antigen preparations. The C14 antigen (90 KDa glycoprotein purified from saliva by affinity chromatography on C14 monoclonal), CEA (180 KDa glycoprotein purified from colorectal tumour live metastases by affinity chromatography with 365 mab) and glycolipid extract (glycolipid extracted in 3:1 methanol chloroform w/v from colorectal tumours) were dried onto microtitre plates by overnight incubation at 37° C. Binding of SC104 mab was assayed by ELISA as described above.

Results on one molecule are retold here after patent publication US20080118509A1 (CEPHALON AUSTRALIA, published 2008).

B1: SC104 monoclonal antibody (antibody, V domains shown)
VH: DVQLQESGPDLVKPSQSLSLTCTVTGYSITSGYSWHWVRQFPGNKMEWMGHIHFSGRPTYNPSLSSRISITRDTSKNQFLLQLKFVTTEDTSTYFCARKGKGSDDGLNYWGQGISVTVSS
VL: ENVLTQSPVIMSASPGEKVTMTCSASSSLSYIHWYQQKSRTSPKLWIYDTSNLASGVPGRFSGSGSGNSYSLTISSMEAEDVATYYCFQGSEYPLTFGGGTKLEMT
notes: Mouse IgG1 mab with kappa light chain, from hybridoma SC104/1E9; also called SC104 mab; SC104 antibody
Consider B1, for which the binding result is listed as “no binding”.
